The values that follow come from patent US20020051988A1 (TRUSTEES OF BOSTON UNIVERSITY, published 2002).

By IC50 is commonly meant the point on the concentration scale where inhibition reaches its midpoint.

Where no end group is shown, it is not given here.

For assay [1], the target named is p75 nerve growth factor receptor (p75^NTR) overexpressed on permanently transfected NIH 3T3 fibroblasts (Homo sapiens (Human)) (UniProt P08138). Kind of assay: competition with ^125I β-amyloid 1-40 on p75^NTR-NIH 3T3 cells, 2 h at 4 C, NGF 0-100 ng/ml; value at 100 ng/ml NGF.
Assay [2] addresses p75 nerve growth factor receptor (p75^NTR) on cultured normal human melanocytes (human) (UniProt P08138). Nature of the assay: cell-based or functional assay.
The target of assay [3] is p75 nerve growth factor receptor (p75^NTR) overexpressed on permanently transfected NIH 3T3 fibroblasts (Homo sapiens (Human)) (UniProt P08138). Nature of the assay: cell-based or functional assay.
Assay [4] addresses T1, p75 nerve growth factor receptor (p75^NTR) overexpressed on permanently transfected NIH 3T3 fibroblasts (Homo sapiens (Human), UniProt P08138 29-427).
T1 construct: also called 75 kD neurotrophin receptor
T1 sequence: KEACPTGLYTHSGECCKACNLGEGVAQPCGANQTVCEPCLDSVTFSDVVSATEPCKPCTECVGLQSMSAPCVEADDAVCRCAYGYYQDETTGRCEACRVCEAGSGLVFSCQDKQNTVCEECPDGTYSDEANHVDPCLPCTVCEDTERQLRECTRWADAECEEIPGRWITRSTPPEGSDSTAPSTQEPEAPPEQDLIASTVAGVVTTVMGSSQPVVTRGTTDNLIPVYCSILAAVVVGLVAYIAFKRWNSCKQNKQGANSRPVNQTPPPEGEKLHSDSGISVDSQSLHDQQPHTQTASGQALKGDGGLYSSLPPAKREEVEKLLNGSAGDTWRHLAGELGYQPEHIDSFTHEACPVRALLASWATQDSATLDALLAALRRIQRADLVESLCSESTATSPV
Kind of assay: displacement of ^125I β-amyloid 1-40 from p75^NTR 3T3 cells, 4 h at 4 C, peptide 0-400 nM.

In the case of Nerve growth factor (NGF) (ligand), in assay [1], the maximum % inhibition of ^125I labeled β-amyloid binding is 38%.
Turning to “β-amyloid 1-40 peptide (from UniProt P05067 1-40)”, in assay [2], the Bax induction came to 3 fold, the Bax level as compared to the 40-1 peptide was found to be 270%, the decrease in cell yield came to 59% and the decrease in melanocyte yield was > 50%. The same molecule returned a decrease in cell yield in assay [3] of 60%.
In the case of “β-amyloid 25-35 peptide (from UniProt P05067 696-706)”, in assay [2], the Bax induction amounted to 3 fold and the Bax level as compared to the 40-1 peptide turned out to be 160%.

B1: cyclic peptide CVGSNKGAIC (SEQ ID NO: 4) (peptide)
peptide: CVGSNKGAIC
modifications: also: cyclic peptide, ring closure not given here
notes: also called cyclic decapeptide; cold peptide
Regarding B1, in assay [4], the IC50 came to 25 nM.
